Data reported in patent US20150335719A1, “Intravitreal Injection of a Chimeric Phage Endolysin Ply187; Protection from Staphylococcus aureus Endophthalmitis” (priority 2014, published 2015).

Experiments:
[1] = tested on: S. aureus R 2952 (HA-MRSA); assay: MIC against S. aureus strains (Table 1); assay type: cell-based, Staphylococcus aureus; details: mean of three experiments ± SEM
Experimental: (§1) For in vivo studies, an antibiotic sensitive S. aureus (SA) strain RN6390 was used to induce endophthalmitis; whereas, the in vitro studies were performed using antibiotic-resistant strains (Table 1), including USA300, a community-associated methicillin resistant S. aureus (CA-MRSA), and three clinical isolates R2932 (CA-MRSA), R2952 and R3000 (both being hospital-associated MRSA, […]), […]) kindly provided by Dr. Michael J. Rybak (Department of Pharmaceutical Sciences, Wayne State University, Detroit, Mich.). All bacteria were routinely cultured in TSB broth (Tryptic Soy broth, Sigma, St Louis, Mo.) or on TSB agar plates.
(§2) To verify and quantify the lytic activity against live S. aureus, we have tested Ply187AN-KSH3b in the Turbidity Reduction Assay. The turbidity assay measures the drop in optical density (OD) resulting from lysis of the target bacteria with the phage endolysin-derived protein. Turbidity reduction assays by chimeric Ply187AN-KSH3b were performed in a 96 well plate as described previously by Becker et al. (2009a, 2009b, supra). Briefly, S. aureus strains/isolates RN6390, USA 300, and clinical isolates R2932, R2952 and R3000 were grown to logarithmic phase (OD600 0.4-0.6) at 37° C. in tryptic Soy broth (TSB). The culture was harvested by centrifugation and the pellet was resuspended in assay buffer (400 mM NaCl, 20 mM Tris HCl, 1% glycerol, pH 7.5). Bacterial cultures (100 μl/well) were mixed with 100 μl of (as per MIC) of chimeric Ply187AN-KSH3b protein diluted in the same assay buffer. The reduction in the turbidity was measured after every 5 min up to 1 h using a micro plate reader. EB diluted in the same assay buffer (without chimeric Ply187AN-KSH3b protein) was used as a control (EB C). Resistance development against chimeric Ply187AN-KSH3b was tested using repeated exposure in an MIC assay as described by Rodriguez-Rubio and co-workers (Rodriguez-Rubio et al., PLoS One 8:e64671.). In brief, bacterial cultures (10^5 CFU/well) were exposed overnight to a 2-fold serial dilution of chimeric Ply187AN-KSH3b, lysostaphin, and gentamicin, where the latter serve as controls. In every round, 100 μl culture from the wells with growth (½ MIC value) were inoculated into fresh TSB and grown up to logarithmic phase. These cultures were used for the next round of MIC exposure. Bacteria surviving after 10 rounds were grown for an additional 5 rounds in TSB without any selection pressure to allow phenotype-reversion, then MIC were performed to measure the sensitivity to the chimeric Ply187AN-KSH3b after non-selective growth.

[2] = tested on: S. aureus R 3000 (HA-MRSA); assay: MIC against S. aureus strains (Table 1); assay type: cell-based, Staphylococcus aureus; details: mean of three experiments ± SEM
Experimental: as §1, §2

S. aureus strain RN6390 = assay: Resistance development assay by repeated exposure in an MIC assay; assay type: cell-based, Staphylococcus aureus; details: RN6390, up to 10 rounds of exposure
Experimental: Error bars represent SEM for three independent experiments performed in triplicates. […] Cells surviving at half (½) of the MIC value were used as an inoculum for each subsequent round of exposure. The change in susceptibility is recorded and presented as fold change resistance from day 1 to 10 of exposure and also after 5 days of growth (without any selection pressure) following the 10th day (represented as 10+5). The data represent means±SEM of two independent experiments performed in triplicate.
as §2, with “In every round, 100 μl culture from the wells with growth (½ MIC value) were inoculated into fresh TSB and grown up to logarithmic phase. These cultures were used for the next round of MIC exposure. Bacteria surviving after 10 rounds were grown for an additional 5 rounds in TSB without any selection pressure to allow phenotype-reversion, then MIC were performed to measure the sensitivity to the chimeric Ply187AN-KSH3b after non-selective growth.” left out

[3] = tested on: S. aureus RN6390 endophthalmitis; assay: Mouse S. aureus endophthalmitis: histology (H&E) and TUNEL staining of retina; assay type: in vivo, C57BL/6 mice
Experimental: FIGS. 3A-3E show the effects of intravitreal injection of chimeric Ply187AN-KSH3b on the severity of S. aureus endophthalmitis. The eyes (n=10) of C57BL/6 mice were infected with S. aureus strain RN6390 and following either 6 h or 12 h post-infection, Ply187AN-KSH3b or EB (EB C) was administered by intravitreal injection. FIG. 3A depicts individual eyes assigned clinical scores (range 0 to 4; black dots represent an eye) and presented as mean clinical scores (bar with SEM). […] FIG. 3E depicts the total number of dead cells in the retinal sections that were counted and are presented as mean±SD of the TUNEL positive cells. A student's t test (**, p<0.005) was used for the statistical analysis and comparisons were made between the S. aureus (SA) control, SA+EBC, and SA+Ply187AN-KSH3b-treated group.
The embedding, sectioning, and Hematoxylin and Eosin (H & E) staining was performed by Excalibur Pathology Inc. (Oklahoma City, Okla.). For immunostaining, the eyes were fixed in Tissue-Tek® O.C.T. (Sakura, Torrance, Calif.) and five-micrometer-thick sagittal sections were collected from each eye and mounted onto microscope slides. TUNEL staining was performed on retinal cryo-sections using ApopTag® Fluorescein In situ Apoptosis Detection Kit as per manufacturer's instruction (Millipore, Billerica, Mass.).

S. aureus = assay: Antimicrobial activity in the presence of calf vitreous humor in vitro; assay type: cell-based, Staphylococcus aureus; details: calf VH, 10^5 CFU, 2, 4 and 6 h
Source text: FIGS. 4 A, B and C depict the effect of chimeric Ply187AN-KSH3b on bacterial growth in vivo and in the vitreous humor (VH) in vitro and with increasing inoculums in vitro respectively. […] Twenty-four hours after the treatment, the eyes were enucleated, homogenized and the bacterial burden was estimated via serial dilution plating. FIG. 4B depicts a test showing the effect of the vitreous humor on Ply187AN-KSH3b antimicrobial activity where Ply187AN-KSH3b was mixed with calf vitreous humor and inoculated with 10^5 CFU of S. aureus. The survival of the bacteria was enumerated by CFU count at 2, 4 and 6 h of incubation. Statistical analysis was performed using unpaired student's t test (*, p<0.05; **, p<0.005; ***, p<0.0005). […] An increasing number of dilutions (1:10,000 to 1:10) of logarithmic phase of S. aureus (RN6390 strain) were treated with Ply187AN-KSH3b for 1 h followed by CFU enumeration on TSA plates. Statistical analysis was performed using unpaired student's t test (*, p<0.05; **, p<0.005; ***, p<0.0005).
To determine the effect of Vitreous Humor (VH) on antimicrobial activity of chimeric Ply187AN-KSH3b in vitro, bacteria (10^5 CFU) were incubated with chimeric Ply187AN-KSH3b in the presence of calf VH. Following incubation at 37° C. for the desired time, bacterial growth in VH was enumerated by serial dilution plating. […]

B1: Ply187AN-KSH3b: staphylococcal peptidoglycan hydrolase fusion protein: endopeptidase domain of prophage endolysin Ply187 plus SH3b cell wall-binding domain of phage K endolysin LysK (SEQ ID NO:1) (protein)
chain: MALPKTGKPTAKQVVDWAINLIGSGVDVDGYYGRQCWDLPNYIFNRYWNFKTPGNARDMAWYRYPEGFKVFRNTSDFVPKPGDIAVWTGGNYNWNTWGHTGIVVGPSTKSYFYSVDQNWNNSNSYVGSPAAKIKHSYFGVTHFVRPAYKAEPKPTPPLESTPATRPVTGSWKKNQYGTWYKPENATFVNGNQPIVTRIGSPFLNAPVGGNLPAGATIVYDEVCIQAGHIWIGYNAYNGNRVYCPVRTCQGVPPNQIPGVAWGVFKVEHHHHHH
modifications: Chemically Synthesized Fusion Protein
- MIC [1]: 8.33 ± 2.08 µg/mL
- MIC [2]: 4.16 ± 1.04 µg/mL
- fold change in resistance (S. aureus strain RN6390): failed to develop any resistance
- histological analysis (H&E) of retina ([3]; 1 μg/eye intravitreal): preserved the integrity of the retina
- TUNEL+ cells (retinal cell death), average ([3]; retinal sections): 17.66 TUNEL^+ cells/eye
- killing activity in presence of vitreous humor (viable count) (S. aureus): does not adversely affect the killing activity
